The series is described as follows: yeast display, Sf9 membrane polyspecificity reagent, FACS + sequencing; frameworks hold sequencing errors. In short, it runs like this: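 A nanobody's polyreactivity label depends on the gate it was sorted from. Yeast display cells were stained with 10% biotinylated, detergent-solubilized Sf9 membrane reagent for 1 hour at 4 °C, enriched on streptavidin microbeads and sorted by FACS. The low and high (top ~1%) gates were set on anti-HA fluorescence for expression and streptavidin fluorescence for reagent binding.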
On to “QVQLVESGGGLVHAGGSLSLSCAASGSIFGYYAKGWYRQAPGKERELVAAITVSGGSTYYADSVKGRFTISRDNAKNTDYLQLISLKPEDTAVYYCAADDIYGEYYYWGQGTQVTVSS”, for which the “polyreactivity (PSR sort gate)” value is “high polyreactivity”. On to “QVQLVESGGGLVHAGGTLRLTCAASGFIFKRYTLGWYRQAPGQERELFATINRNGGNTYYADSVKGRFTISRDNAKNTVYLQMNILKPEDTSVYYCNARYWRAQGWPGYDYWGQGTQVTVSS”, for which the “polyreactivity (PSR sort gate)” value is “high polyreactivity”. Next, “QVQLVESGGGLVHAGSSLRLSCAASGSTYPYNAMGWYRQAPGKERELVAAIDYSGGSTYAVSVKGRFTISRDNAKNTVYLQMNSLTPEDTAVYYCAYCRVVVYDVSGDDEDYDYWGQGSQVTVSS”: “low polyreactivity”; “QVQLVESGGGLVHAVGSHRLSCTASGSTFVAYPMGWYRQAPGKERELVAAITSSGGRTYYADSVKGRFTISRDNSKNTVYLQINSLKPEDTAVYYCAAVTHGRYDWGQGTQVTVSS”: “high polyreactivity”. In the case of “QVQLVESGGGLVHAVGSLRLSCAASGFIFHEYAMGCYIQAPGKERELVAAISSGGGSTYYADSVKGRFTISRDNAKNTVYLQMNSLKPEDTAVYYCAADATAYSVLTRDYWGQGTQVTVSS” it was “high polyreactivity”; in that of “QVQLVESGGGLVKAGGPLRLSCAASGSIFYYNPMGWYRQAPGTERELVAAITSGDSTNYADSVKGRFTISRDNAKNSVYLQLNSLKPEDTAVYYCAADYLAALTYYRTYDYWGEGTQVTVSS”, “low polyreactivity”; in that of “QVQLVESGGGLVKAGGSLRISCAASGFTFVSYSKGWYRQAPGKERELVADISSGVSTNYADSVKGRFTISRDNAKNTVYLQMNSLNPEDTAVYYCAAYGTKWGRGFYITGYGYWGQGTQVTVSS”, “low polyreactivity”. Next, “QVQLVESGGGLVKAGGSLRLSCAASGFIFVPYAMGWYRQAPGKERELVAAITWSSGGNTYYADSVKGRFTISRDNAKNTVYLQMNSLKPEDTAVYYCAAEWYEAGYWYDYWGQGTQVTVSS”: “high polyreactivity”; “QVQLVESGGGLVKAGGSLRLSCAASGFTFTIYAMGWYRQAPGKERELVAAITNSGDTNYADSVKGRFTISRDNAKNTVYLQMNSLKPEDTAVYYCAKAYYIGYFFNFGSWGQGTQVTVSS”: “low polyreactivity”; “QVQLVESGGGLVKAGGSLRLSCAASGGTFNRNAMGWYRQAPAKERELVAAICSSGGRTYYADSVKGRFTISRDNAKNTVYLQMNSLKPEDTAGYYCAAGRKGHGGAYDSWGQGTQVTVSS”: “high polyreactivity”. On to “QVQLVESGGGLVKAGGSLRLSCAASGITFWRYTMGWYRQAPGIERELVAAITSRGGNTYYADSVKGRFTISRDNAKNTVYLQLNSLKPEDTAVNYCNADRYNKYWYDYWGQGTQVTVSS”, for which the “polyreactivity (PSR sort gate)” value is given as “high polyreactivity”. “QVQLVESGGGLVKAGGSLRLSCAASGLNFNRYTMGWNRQAPGKERELVAVIDCSGGSTRYADSVKGRFTISRDNAKNTVDLQMNSLKPEDTAVYYCDYYWAQGTQVTVSS”: the “polyreactivity (PSR sort gate)” value is “low polyreactivity”. Next, “QVQLVESGGGLVKAGGSLRLSCAASGRICSSYAMGWYRQAPGKERELVAAISRGGGRTYYADSVKGRFTNSRDNAKNTVYLQMNSLKPEDTAGYYCAAGRRYASEMDYWGLGTQVTVSS”: “high polyreactivity”; “QVQLVESGGGLVKAGGSLRLSCAASGRIFDYNAMGWYRQAPGKERELVAAISYSGGGTYYADSVKGRFTISRDYAKNSVYFQMNSLKPEDTAVYYCAKPYYQYYYISYDYWGQGTQVTVSS”: “low polyreactivity”; “QVQLVESGGGLVKAGGSLRLSCAASGRIFYYNTMGWYRQAPGKERELVAAITTNGGSTYYADSVKGRFTISRDNAKNTVYLQMNSLKPEDTAVYYCNRDRYPYYYAYNYWGQGTQVTVSS”: “low polyreactivity”. In the case of “QVQLVESGGGLVKAGGSLRLSCAASGRTFWIYAMGWYRPAPGKERELRAAISQSSSNTYYADSVKGRVTLSRDNAKNTVYLQMNSLKPEDTAVYYCNAVVLRYQGSWLEYWGQGTQVTVSS” it was “low polyreactivity”; in that of “QVQLVESGGGLVKAGGSLRLSCAASGSIFKSNAMGWYRQAPGKEWELVAAISDSGGSTYYADSVKGRFTISRDNAKNTVYLQMNSLKPEDTAVYYCNADWSWYNYYDFDYWGQGTQVTVSS”, “low polyreactivity”; in that of “QVQLVESGGGLVKAGGSLRLSCAASGSIFLTYAMGWNRQAPGKERELVAAITQSGGSTYYADSVKGRFTISRDNAKNTVYLQMNSLKPEDTAVYYCAADVFGPQYWWYDYWGQGTQVTVSS”, “low polyreactivity”.

In the case of “QVQLVESGGGLVKAGGSLRLSCAASGSIFYFNAMGWYRQAPGKERELVATIRSGDGRTYYADSVKGRFTISRDNAQNTVYLQMNSLKPEDTAVYYCNASRVVYRQAYVYGYDYWGKGTQVTVSS”, the “polyreactivity (PSR sort gate)” value is reported as “low polyreactivity”. “QVQLVESGGGLVKAGGSLRLSCAASGSTFDYYAMGWYRQAPGKERELVAAISGSGGSTYYADSVKGRFTISRDIAKNTVYLQMNSLKPEDTAVYYCATVRSRLFGQYYYWGQGTQVTVSS”: the “polyreactivity (PSR sort gate)” value is recorded as “high polyreactivity”. In the case of “QVQLVESGGGLVKAGGSLRLSCAASGSTFERYAMGWYRQAPGKERELVAAINWSGGGTYYADSVKGRFTISRDNAKNTVYFQMNSLKPEDTAVYYCAADSGTVVFSLWWYEYYYWGQGTQVTVSS” it was “low polyreactivity”. In the case of “QVQLVESGGGLVKAGGSLRLSCAASGSTFLWTTMGWYRPAPGKERELVAAISRSGGSTYYADSVKGRFTISRDNAKNTVYLQMISLKPEDTAVYYCAARTAGPWSWYHYWGQGTQVTVSS” it was “high polyreactivity”; in that of “QVQLVESGGGLVKAGGSLRLSCAASGSTFWYNAMGCYRQAPRKERELVAAITRGASTNYADSVKGRFTISRDNAKNTVYLQMNCLKPEDTAVYYCAGGPARWKGYYWGQGTQVTVSS”, “high polyreactivity”.

In the case of “QVQLVESGGGLVKAGGSLRLSCAASGSTYQTYAMGWYRHAPGKERELVAAISFNGGSTYYADSVKGRFTISRDNAKNTVYLQMNSLKPEDTAVYYCAVEYTWASALYDGRHDYWGQGTQVTVSS”, the “polyreactivity (PSR sort gate)” value is reported as “high polyreactivity”. Next, “QVQLVESGGGLVKAGGSLRLSCVASGLMFGYCAMGWYRQPPGTERELVAVISWSGTSRYYADSVKGRFTISRDNAKNTVYLQMNSLKPEDTAVYYCIADTYGYYLWTGAVSAGDDYWVQGTQVTVSS”: “low polyreactivity”; “QVQLVESGGGLVKAGGSLRLTCSASGSIFRRNALRCSRHAPGKERELDAAISSGGSTNYADSVKGRFTISRDNAKNTVYLQMISQKPEDSAVYYCNTRYFRRARKGDSWGQGTQVTVSS”: “high polyreactivity”; “QVQLVESGGGLVKAGVSLRLICAASGSTFDGNDMGWYRQAHGKERELVATINSDDSKNYADSVKGRFTISRDNAKNTVYLQMNSLKPEDTAVYYCAARLYVTPILSYVERYTNDYWGQGTQVTVSS”: “low polyreactivity”.

For the sequence “QVQLVESGGGLVKAGVSLRLICAASGSTFWYNDRGSYRQSPGKERELVASNSWSGGDTYYADSVKGRLTISRDNAQNTVYFQMNRLKPEDTAVYNCAKGNNWISRLMDYWGQGTQVTVSS”, the “polyreactivity (PSR sort gate)” value is reported as “low polyreactivity”. Next, “QVQLVESGGGLVLAGGRLRLSCAASGRIFTRYAMGCYRQAPGKERELVAVITRSGGSTYYADSVKGRFTISRDIAKNTVYLQMNSLKPEDTAVYYCAAKYYGEMYYWGQGTQVTVSS”: “low polyreactivity”. Take “QVQLVESGGGLVLAGGRLRLSFAASGFIFYQYAKAWYRQATGKEWEFVAAISRNGGSTYYADSVKGRFTISRDNATNTVYLQMNSLKPEDTAVYYCNRDCGGLWSENGYWGQGPQVTVSS”: the “polyreactivity (PSR sort gate)” value was “high polyreactivity”.

For the sequence “QVQLVESGGGLVLAGGSLRLSCAASGITFFTYTMGWYRQAPGKERELVARIRWDGGSTYYADSVKGRFTISRDNAKNTVYLQMNSLKPEDTAVYYCAADYPYSTYDYWGQGTQVTVSS”, the “polyreactivity (PSR sort gate)” value is listed as “low polyreactivity”. Next, “QVQLVESGGGLVLAGGSLRLSCAASGRIFAVYAMGWYRQAPGQERELVAAIRARGGSTYYADSVKGRFTISRDNAKNTVDLQMNSLKPEDTPDYYCTARTSYSRTYRYYYWGQGTQVTVSS”: “high polyreactivity”; “QVQLVESGGGLVLAGGSLRLSCAASGRIFWNYAMGWYRQAPGKERELVASINWSGGSTYYADSVKGRFTISRDNAKNTVYLQMNSLKPEDTAVYYCNKDGRVYLDHDYWGQGTQVTVSS”: “low polyreactivity”. “QVQLVESGGGLVLAGGSLRLSCAASGRPFYGNTMGWYRQAPGKERELVAAISYSGGTTSYADSVKGRFTISRDNAKNTVYLQMNSLKPEDTAVYYCAKRYSYWWTSGYDYWGQGTQVTVSS”: the “polyreactivity (PSR sort gate)” value is reported as “high polyreactivity”. Next, “QVQLVESGGGLVLAGGSLRLSCAASGRTFGVYAMGWYRQAPGKERELVADITYRDGSTYYADSVKGRFTISRDNAKNTVYLQMHSLKPEDTAVYYCAAAESTWFDWVWMDYWGQGTQVTVSS”: “high polyreactivity”. As for “QVQLVESGGGLVLAGGSLRLSCAASGRTFGWNAMGWYRQAPGTERELVAAISWSGGSTSYADSVKARFTISRDNAKNTVYLQMNSLKPEDTAVYYCGKLDSYGMYYWGQGTQVTVSS”, the “polyreactivity (PSR sort gate)” value is given as “low polyreactivity”. For “QVQLVESGGGLVLAGGSLRLSCAASGSMFGGYAMGWYLQSPGKERELVAAISYRGASTYYADSVKGRFTISRDNAKNTVYLQMNSVKPEDTAVYYCAVAARTRDRVLYGYDYWGQGTQVTVSS”, the “polyreactivity (PSR sort gate)” value is “low polyreactivity”. On to “QVQLVESGGGLVLAGGSLRLSCAASGSTFDTYAMGWYRQAPGKERELVAAITSGGITNYADSVKGRFTISRDNAKNTVYVQMNSLKPEDTAVYYCAKEGFWPRQARRLDYWGQGTQVTVSS”, for which the “polyreactivity (PSR sort gate)” value is reported as “low polyreactivity”. Next, “QVQLVESGGGLVLAGGSLRLSCASSGRIFYGYAMVWSRQAPGKERELVAAITSSGRTYYADSVKGRFSISRDNAKNTVYLLMNSLKPEDTAVYYCNVVTKFTGRGYDFWGQGTQVTVSS”: “high polyreactivity”. Next, “QVQLVESGGGLVLAGGSLRLTCAASGRTFSQYTMGWYRQAPGKERELVAAISVSGTSTYYADSVKGRFTISRDNAKNTVYLQMNSLKPEDTAVYYCAAGYQRITRFAHRKYGYWGQGTQVTVSS”: “high polyreactivity”. In the case of “QVQLVESGGGLVLTGGSLRLSCAASGSILGTYAMGWYRQAPGKERELVARISRGGSTNYADSVKGRFTISRDNAKNTVYLQMNSLKPEDTAVYYCAKRLYLPESWRYYYWGQGTQVTVSS” it was “high polyreactivity”.

(Values after the nanobody polyreactivity screen of Harvey et al. (2022).)
